B1: PPP2R2B (parent)
chain: RNTKRDVTLEASRENSKPRAILKP

Variants of: B1
Test: protein stability index of a GFP-peptide fusion (GPS, HEK-293T) (PSI 1-6); higher = more stable
Details: c terminus: a fixed tail appended
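Also: lentivirally expressed fusions sorted by FACS into six bins by GFP to DsRed ratio, PSI derived from sequencing read proportions per bin multiplied by bin number.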

Protein stability index: each site, then its substitutions
R5: S 4.49, V 4.91, M 3.86, P 4.79, I 4.19, G 5.07, Y 4.26, K 4.62, Q 4.54, E 5.03, A 5.17, T 4.94, L 4.4, H 4.85, F 4.44, N 4.92, W 3.87, C 4.43, D 4.68
R13: K 4.69, M 4.64, W 3.56, V 4.67, I 4.53, Y 4.37, N 4.83, L 4.44, Q 4.75, S 4.91, E 5.14, P 4.46, T 4.07, G 5.06, A 4.92, C 4.16, D 5.09, H 5.06, F 3.98
A11: G 4.49, M 4.36, K 4.23, F 3.59, R 4.58, D 4.78, T 4.44, Y 3.92, I 3.92, C 4.52, L 3.35, P 4.23, S 4.67, Q 4.28, E 5.24, W 3.95, N 4.3, H 4.8, V 4.49
D6: T 4.34, Y 3.79, F 3.83, I 3.64, L 3.94, M 4.33, P 3.81, W 3.27, G 4.44, E 4.49, R 4.29, A 4.64, S 4.55, H 4.49, Q 4.46, C 4.29, N 4.55, V 4.08, K 4.45
S16: G 4.42, K 4.23, F 4.38, V 4.24, H 4.57, A 4.51, T 4.2, N 4.48, Q 4.61, L 4.16, R 4.24, P 4.96, W 3.37, M 4.53, I 4.19, D 4.58, E 4.75, C 4.23, Y 4.17
V7: K 4.6, F 4.43, C 3.77, T 4.81, E 4.46, H 4.67, N 4.76, S 4.58, D 4.86, G 4.83, W 4.61, Q 4.8, A 4.19, I 4.25, R 4.59, L 4.42, Y 4.63, M 4.81, P 4.98
E10: Y 4, I 4.14, N 4.25, A 4.52, G 4.32, C 3.86, T 3.7, P 4.55, S 4.38, V 4.35, F 3.49, Q 4.33, H 4.12, D 4.64, M 3.83, W 2.77, L 3.6, K 4.52, R 4.01
R19: V 4.72, T 4.52, Y 4.21, S 4.41, G 4.86, E 5.04, W 3.98, F 4.12, D 4.86, K 4.7, P 4.79, Q 4.75, L 4.7, I 4.39, C 4.69, H 4.46, N 4.7, A 4.2, M 4.44
E14: C 3.9, Q 4.97, Y 3.67, K 4.12, M 3.88, D 4.4, F 3.88, R 4.14, A 4.66, G 4.4, W 3.87, T 4.58, H 4.49, L 4.04, S 4.45, I 3.72, N 4.72, V 3.79, P 4.3
S12: W 3.79, V 4.33, Q 4.42, D 4.8, G 5.13, H 4.73, T 4.79, A 4.12, M 4.12, C 3.95, P 4.45, F 3.58, E 4.95, N 4.43, R 4.41, I 4.07, K 4.34, L 3.96, Y 4.18
P18: C 4.25, T 4.54, R 4.79, M 4.58, L 4.27, G 4.86, Y 3.62, Q 4.76, V 4.32, D 5.07, F 3.79, I 4.27, W 3.87, H 4.11, A 4.52, E 5, S 4.72, K 4.73, N 4.55
K17: P 5.27, C 4.18, R 4.38, W 4.3, M 4.69, Y 4.14, A 4.66, L 4.56, F 4.37, G 4.89, I 4.33, Q 4.81, S 4.04, V 4.66, T 4.71, D 4.57, H 4.47, N 4.5, E 5.13
N15: P 4.32, V 4.45, T 4.49, R 4.22, C 4.13, A 4.29, I 4.59, E 4.92, K 4.82, W 3.77, H 3.94, L 4.53, G 4.49, S 4.85, Y 4.09, F 4.66, M 4.09, Q 4.73, D 4.77
L9: E 4.78, C 4.78, I 4.38, T 4.96, R 4.84, S 4.89, Y 4.52, V 4.59, K 4.26, W 4.34, P 4.4, N 4.22, H 4.46, F 4.11, M 4.84, A 4.9, G 4.88, D 5.09, Q 5.07
I21: P 5.15, C 4.85, R 5.35, N 4.68, Y 4.5, D 5.3, G 4.99, S 4.78, V 4.6, L 4.68, F 4.3, Q 4.8, H 4.52, T 4.5, W 4.7, E 5.34, K 4.83, A 4.8, M 4.67
L22: E 5.31, A 4.99, G 4.69, D 5.09, F 4.5, C 4.47
T8: M 4.34, E 4.9, C 4.2, K 4.86, I 4.35, G 4.54, Q 4.62, R 4.68, A 4.72, F 3.88, H 4.35, S 4.3, Y 4.31, P 4.76, N 4.98, L 4.62, V 4.25, W 3.66, D 5.02
K4: W 3.39, S 4.92, V 4.19, T 4.82, Y 4.42
A20: S 4.48, D 4.64, K 5.04, F 4.03, P 4.3, Y 4.1, G 4.39, C 4.17, L 4.19, Q 4.44, V 4.38, E 5, T 4.49, H 4.85, M 4.65, I 4.32, R 4.66, N 4.64, W 3.3

Source: the supplement of paper PMC10567573
